Holding throughout (assay): cell-based or functional assay
For experiment [1], the target named is hemagglutinin (HA) of influenza A/Env/HK/MPU3156/05 (H2N2) (influenza A virus).
The target of experiment [2] is hemagglutinin (HA) of influenza A/California/07/09 (H1N1) (influenza A virus).
For experiment [3], the target named is hemagglutinin (HA) of influenza A/Taiwan/2/2013 (H6N1) (influenza A virus).
In experiment [4] the target is hemagglutinin (HA) of influenza A/Hiroshima/52/05 (H3N2) (influenza A virus).
For experiment [5], the target named is hemagglutinin (HA) of influenza A/HK/54/98 (H1N1) (influenza A virus).
In experiment [6] the target is hemagglutinin (HA) of influenza A/Great Cormorant/MP2934/04 (H9N2) (influenza A virus).
The target in experiment [7] is hemagglutinin (HA) of influenza A/Northern Pintail/MPB1368/06 (H4N1) (influenza A virus).
For experiment [8], the target named is hemagglutinin (HA) of influenza B/Florida/04/06 (Yamagata) (influenza B virus).
The target of experiment [9] is hemagglutinin (HA) of influenza A/New Caledonia/20/99 (H1N1) (influenza A virus).
For experiment [10], the target named is hemagglutinin (HA) of influenza A/Common Teal/MPH11/08 (H10N3) (influenza A virus).
Experiment [11] deals with hemagglutinin (HA) of influenza A/Env/MPK659/09 (H12N5) (influenza A virus).
Experiment [12] addresses hemagglutinin (HA) of influenza B/Lee/40 (Old) (influenza B virus) (UniProt P03460).
Experiment [13] deals with hemagglutinin (HA) of influenza A/Netherlands/219/2003 (H7N7) (influenza A virus).
For experiment [14], the target named is hemagglutinin (HA) of influenza A/Env/MPJ1258/09 (H8N2) (influenza A virus).
Experiment [15] has as its target hemagglutinin (HA) of influenza B/Harbin/7/94 (Yamagata) (influenza B virus).
Experiment [16] has as its target hemagglutinin (HA) of influenza A/NIBRG/60 (A/mallard/Netherlands/12/00) (H7N3) (influenza A virus).
The target of experiment [17] is hemagglutinin (HA) of influenza A/Wisconsin/67/05 (H3N2) (influenza A virus).
Experiment [18] addresses hemagglutinin (HA) of influenza A/HK/466419/09 (H9N2) (influenza A virus).
For experiment [19], the target named is hemagglutinin (HA) of influenza A/Great Cormorant/MPB1683/06 (H4N6) (influenza A virus).
For experiment [20], the target named is hemagglutinin (HA) of influenza A/Northern Shoveler/MPF518/08 (H7N7) (influenza A virus).
The target of experiment [21] is hemagglutinin (HA) of influenza A/Eurasian Wigeon/HK/MPF333/07 (H5N2) (influenza A virus).
Experiment [22] concerns the target hemagglutinin (HA) of influenza A/Fukui/45/04 (H3N2) (influenza A virus).

Sequence of hemagglutinin (HA) of influenza B/Lee/40 (Old) (influenza B virus) (P03460 16-584 limits assumed): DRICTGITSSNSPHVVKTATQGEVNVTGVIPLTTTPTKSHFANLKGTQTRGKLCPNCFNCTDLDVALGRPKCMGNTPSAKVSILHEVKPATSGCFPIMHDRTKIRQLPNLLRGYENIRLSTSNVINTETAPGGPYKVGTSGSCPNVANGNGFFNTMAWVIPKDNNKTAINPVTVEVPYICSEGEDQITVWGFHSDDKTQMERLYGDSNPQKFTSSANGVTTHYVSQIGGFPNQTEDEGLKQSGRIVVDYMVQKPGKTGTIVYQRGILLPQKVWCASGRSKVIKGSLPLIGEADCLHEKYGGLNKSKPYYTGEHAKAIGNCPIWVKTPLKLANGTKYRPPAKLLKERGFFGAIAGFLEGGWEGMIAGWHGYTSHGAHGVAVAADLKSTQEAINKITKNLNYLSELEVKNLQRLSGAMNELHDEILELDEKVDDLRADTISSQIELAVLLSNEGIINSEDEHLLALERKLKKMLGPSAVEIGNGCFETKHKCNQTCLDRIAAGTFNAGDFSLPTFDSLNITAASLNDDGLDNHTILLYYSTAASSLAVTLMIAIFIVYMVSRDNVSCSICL

Turning to MD3606 (Fc fusion), the Average neutralization titers stood at 9.3 nM in [1]; 1.8 nM in experiment [2]; 14.5 nM in experiment [3]; 6.5 nM in experiment [4]; 5 nM in experiment [5]; 9.7 nM in [6]. Also, the Average neutralization titers in [7] is 2.6 nM; in experiment [8], 1 nM; in experiment [9], 2.6 nM; in [10], 11.3 nM; in [11], over 1000 nM; in experiment [12] it was 3.3 nM. In addition, the Average neutralization titers worked out at 20.4 nM in experiment [13]; 3.9 nM in [14]; 1 nM in [15]; 12.9 nM in experiment [16]; 6.5 nM in experiment [17]; 5.3 nM in experiment [18]. Moreover, the Average neutralization titers in [19] came out at 3.1 nM; in [20] it was 18.4 nM; in experiment [21], 7 nM; in [22] it was 40.5 nM. Further, the ADCC induction (EC50 grade, FcγRIIIa reporter bioassay) in experiment [8] and in [17] was under 0.1 µg/mL each time.
